Laboratory results reported in US20170268035, “GENOMIC PROBES” (Howard Hughes Medical Institute, published 2017).

T1: dCas9-Halo (D10A/H840A SpCas9, nuclease-deficient) (Streptococcus pyogenes, UniProt Q99ZW2 SEQ:8-1375)
T1 chain: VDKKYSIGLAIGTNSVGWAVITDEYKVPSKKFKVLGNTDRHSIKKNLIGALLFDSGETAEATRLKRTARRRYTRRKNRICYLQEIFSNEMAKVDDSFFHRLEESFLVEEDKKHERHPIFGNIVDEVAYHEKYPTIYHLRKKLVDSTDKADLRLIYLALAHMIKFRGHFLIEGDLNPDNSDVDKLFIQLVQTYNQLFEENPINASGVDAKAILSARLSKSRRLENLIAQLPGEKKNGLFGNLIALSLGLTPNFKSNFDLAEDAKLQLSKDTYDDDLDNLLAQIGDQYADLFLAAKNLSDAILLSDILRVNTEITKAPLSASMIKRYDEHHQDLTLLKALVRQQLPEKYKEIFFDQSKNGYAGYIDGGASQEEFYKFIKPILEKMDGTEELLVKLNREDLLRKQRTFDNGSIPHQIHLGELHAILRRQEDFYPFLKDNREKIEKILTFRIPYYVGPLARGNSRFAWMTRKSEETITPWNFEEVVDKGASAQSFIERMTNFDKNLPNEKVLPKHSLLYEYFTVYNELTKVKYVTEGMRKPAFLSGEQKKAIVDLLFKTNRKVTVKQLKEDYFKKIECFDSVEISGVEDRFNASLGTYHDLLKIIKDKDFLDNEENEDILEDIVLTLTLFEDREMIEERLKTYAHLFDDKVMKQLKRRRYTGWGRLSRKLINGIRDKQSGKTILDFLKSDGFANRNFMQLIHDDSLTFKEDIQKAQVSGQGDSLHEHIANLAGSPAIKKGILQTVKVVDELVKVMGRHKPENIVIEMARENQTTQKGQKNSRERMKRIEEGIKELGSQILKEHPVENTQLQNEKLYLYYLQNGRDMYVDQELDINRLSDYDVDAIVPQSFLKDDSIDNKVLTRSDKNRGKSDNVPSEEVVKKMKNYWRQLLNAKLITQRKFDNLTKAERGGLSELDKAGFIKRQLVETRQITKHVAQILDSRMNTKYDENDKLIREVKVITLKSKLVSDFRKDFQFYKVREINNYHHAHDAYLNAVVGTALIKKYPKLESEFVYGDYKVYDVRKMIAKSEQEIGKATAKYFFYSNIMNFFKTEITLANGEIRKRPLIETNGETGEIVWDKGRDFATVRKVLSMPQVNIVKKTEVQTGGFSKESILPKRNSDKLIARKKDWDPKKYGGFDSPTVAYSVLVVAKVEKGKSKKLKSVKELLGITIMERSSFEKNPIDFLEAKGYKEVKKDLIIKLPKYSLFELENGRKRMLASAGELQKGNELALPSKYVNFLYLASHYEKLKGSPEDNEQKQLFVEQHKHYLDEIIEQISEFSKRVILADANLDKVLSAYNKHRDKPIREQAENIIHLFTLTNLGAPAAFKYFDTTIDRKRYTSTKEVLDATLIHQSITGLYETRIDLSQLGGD

B1: DY547-sgMajSat (ssRNA)
RNA: CCAUAUUCCACGUCCUACAGGUUUAAGAGCUAUGCUGGAAACAGCAUAGCAAGUUUAAAUAAGGCUAGUCCGUUAUCAACUUGAAAAAGUGGCACCGAGUCGGUGCUUUUUUU
B2: DY547-sgMajSat ; major satellite target DNA (ssRNA ; dsDNA)
RNA: B1 RNA
DNA 1: TTTCTTGCCATATTCCACGTCCTACAGTGG
DNA 2: CCACTGTAGGACGTGGAATATGGCAAGAAA

Experiments:
[1] = biological target: T1, dCas9-Halo (D10A/H840A SpCas9, …); test: EMSA; binary complex; 100-fold unlabelled sgRNA did not displace; room temperature; settings: tags: N-terminal His6, C-terminal HaloTag; JF549 or JF646 Halo ligand labelled; label: 5'-DY547
Procedure: The stability of the complex is evident from the lack of competition. The control lane (ctrl) indicates the reaction product from a mixture of Cy5 DNA and 30-fold of unlabeled target DNA with dCas9/sgRNA binary complex. As expected, only a small fraction of Cy5-DNA was incorporated into the dCas9 tertiary complex. (B) Competition EMSAs assessing the stability of the binary complex. (B, Left) The indicated fluorescent binary complex was assembled at room temperature for 10 min and incubated further with the indicated fold-amounts of unlabeled sgMajSat at room temperature for 10 min. Unlabeled target DNA was added to the solution subsequently to form a tertiary complex followed by gel electrophoresis. (B, Right) The DY547 intensity of the bands of the tertiary complex plotted as a histogram. The stability of the binary complex of dCas9 and DY547-sgRNA is evident from the lack of competition. The control lane (ctrl) indicates the reaction product from the binary complex formed by a mixture of DY547-sgMajSat and 100-fold of unlabeled sgMajSat with dCas9 protein. As expected, only a small fraction of DY547-sgMajSat was incorporated into the dCas9 tertiary complex. (C) Schematic of two-color CASFISH methods. […]
To explore the possibility of applying multiple dCas9/sgRNA species in one step for multicolor imaging, we assessed the stability of the binary complex by sgRNA competition assay.

[2] = biological target: T1, dCas9-Halo (D10A/H840A SpCas9, …); test: EMSA; PAM TGG; tertiary complex stable to 100-fold competitor DNA and 1.5 h with 30-fold; 37 C; settings: tags: N-terminal His6, C-terminal HaloTag; JF549 or JF646 Halo ligand labelled; label: 5'-DY547; Cy5 (EMSA)
Procedure: The stability of the complex is evident from the lack of competition. Error bars represent SD of three independent experiments.
dCas9 protein and sgRNA were incubated together at room temperature for 10 min to examine the binary complex and subsequently were incubated with target DNA at 37° C. for 15 min to examine the tertiary complex. For the competition assay, an additional binary or tertiary complex reaction was performed after the addition of the competitor molecules. Resulting reaction mixtures were subjected to electrophoresis of 1% agarose gel in 1× Tris/borate/EDTA buffer containing 5 mM MgCl2 and were imaged with GE Typhoon Trio+Imagers.
Simultaneous imaging of multiple chromatin domains or genes is critical for studying chromatin interactions. To explore the possibility of using CASFISH to detect multiple DNA targets simultaneously, we first investigated the binding of CASFISH probes to target DNA by electrophoretic mobility shift assays (EMSA). […] To examine the stability of dCas9/sgMajSat binding to its target DNA, we carried out competition assays by adding excessive amounts of unlabeled target DNA to a preformed tertiary complex of JF549-dCas9/sgMajSat/Cy5-DNA. […]

| Binder | binding result [1] | binding result [2] |
| --- | --- | --- |
| B1 | binds |  |
| B2 |  | binds |
